Assay results: patent publication US12679878B2, “CRF2 receptor agonists and their use in therapy” (SANOFI, priority 2020, dated 2026)
Like-named read-outs stand apart in the source and are kept apart here. Starred links: 1 amine or outer side, 2 acyl side, 3 side chain; linkers in the order of their positions; H or OH if unused. Non-standard residues stand in square brackets, D forms with d. Residues, ends and D or L forms follow the SMILES beside them. Groups on a side chain read outwards from the residue. No end group written: not given here. *: point of attachment. C18 diacid = O=C(O)CCCCCCCCCCCCCCCCC(=O)*; γGlu = O=C(O)[C@H](CCC(=O)[*:2])N[*:1]; Palmitoyl = CCCCCCCCCCCCCCCC(=O)*; AEEA = NCCOCCOCC(=O)O; Aib = CC(C)(N)C(=O)O

Experiments:
human CRF2α receptor = molecular target: T1, human CRF2α receptor (Homo sapiens, UniProt Q13324); assay: cAMP agonism at human CRF2 α receptor in TeloHEAC cells (Example 7); assay type: cell-based; conditions: cAMP HTRF, TeloHEAC cells stably expressing human CRF2 α
T1 construct: expressed in transfected cells; host or cells: TeloHEAC
T1 sequence (Q13324 1-411): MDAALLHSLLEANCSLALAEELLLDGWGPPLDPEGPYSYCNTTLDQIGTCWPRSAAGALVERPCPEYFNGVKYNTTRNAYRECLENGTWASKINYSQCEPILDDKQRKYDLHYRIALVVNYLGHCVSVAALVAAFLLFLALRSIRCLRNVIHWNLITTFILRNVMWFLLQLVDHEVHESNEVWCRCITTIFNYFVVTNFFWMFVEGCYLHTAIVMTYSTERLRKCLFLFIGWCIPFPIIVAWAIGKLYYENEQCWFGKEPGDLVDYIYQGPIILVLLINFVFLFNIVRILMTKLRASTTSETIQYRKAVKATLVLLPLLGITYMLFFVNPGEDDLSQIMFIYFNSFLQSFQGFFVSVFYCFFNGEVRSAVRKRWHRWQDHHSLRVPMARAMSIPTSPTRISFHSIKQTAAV
Method in brief: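 Steps: thaw and wash cells; suspend in 1×HBSS, 20 mM HEPES, 0 or 0.1% HSA, 2 mM IBMX; add compound, 30 min RT; lyse with HTRF reagents, 1 h; read 665/620 nm. EC50 calculated, E% versus 1000 nM UCN2.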

CRF1R receptor = molecular target: T2, CRF1R receptor (Homo sapiens, UniProt P34998); assay: cAMP activity at anti-target CRF1R, CHO-K1 cell line clone 2 (Example 19.10); assay type: cell-based; conditions: CRF1R CHO-K1 clone 2; for EC50: 0% HSA, read-out: EC50 [nM] 0% HSA; for Emax: 100% = Sauvagine at 100 nM
T2 construct: host or cells: CHO-K1 clone 2
T2 sequence (P34998 24-415): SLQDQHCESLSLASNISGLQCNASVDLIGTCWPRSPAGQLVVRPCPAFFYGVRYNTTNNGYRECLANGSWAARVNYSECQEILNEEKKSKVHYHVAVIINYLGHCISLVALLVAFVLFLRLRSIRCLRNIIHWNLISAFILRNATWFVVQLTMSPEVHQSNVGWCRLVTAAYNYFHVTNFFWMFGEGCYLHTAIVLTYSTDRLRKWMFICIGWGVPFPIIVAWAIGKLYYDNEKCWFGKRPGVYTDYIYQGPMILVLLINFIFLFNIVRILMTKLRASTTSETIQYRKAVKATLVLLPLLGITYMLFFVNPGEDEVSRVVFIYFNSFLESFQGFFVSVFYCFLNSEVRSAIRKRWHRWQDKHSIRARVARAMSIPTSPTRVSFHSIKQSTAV
Method in brief: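 A CRF1R-overexpressing CHO-K1 line (clone 2) was grown in F12/10% FBS/G418 and frozen in aliquots before use. The cAMP assay followed the preceding procedure, with 100% activation defined by Sauvagine at 100 nM.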

[1] = molecular target: T3, anti-target CRF1R receptor (UniProt P34998 24-415, limits assumed); assay: cell-based or functional assay
T3 sequence (looked up): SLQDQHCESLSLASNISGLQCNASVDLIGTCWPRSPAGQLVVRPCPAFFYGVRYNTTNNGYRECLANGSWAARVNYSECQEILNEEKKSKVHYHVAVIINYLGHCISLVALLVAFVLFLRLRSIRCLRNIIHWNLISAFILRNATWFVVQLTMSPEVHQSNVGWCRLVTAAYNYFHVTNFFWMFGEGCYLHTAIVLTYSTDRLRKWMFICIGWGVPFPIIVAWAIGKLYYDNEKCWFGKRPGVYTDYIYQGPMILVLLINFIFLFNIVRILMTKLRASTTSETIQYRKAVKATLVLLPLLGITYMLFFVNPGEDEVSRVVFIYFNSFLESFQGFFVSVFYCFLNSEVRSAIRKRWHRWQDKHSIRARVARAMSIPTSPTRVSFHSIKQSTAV

[2] = 0% HSA, read-out: EC50 [nM], 0% HSA

Row | Molecule | EC50 (human CRF2α receptor; [2]) [nM] | EC50 (human CRF2α receptor; 0.1% HSA, read-out: EC50 [nM], 0.1% HSA) [nM] | EC50 (CRF1R receptor) [nM] | Emax (CRF1R receptor) [%] | EC50[nM] 0% HSA (cAMP, CRF1R-overexpression CHO cells) [1] [nM] | Emax (%) (cAMP, CRF1R-overexpression CHO cells) [1]
1 | CC[C@H](C)[C@H](N)C(=O)N[C@H](C(=O)N[C@@H](CC(C)C)C(=O)N[C@@H](CO)C(=O)N[C@@H](CC(C)C)C(=O)N[C@@H](CC(=O)O)C(=O)N[C@H](C(=O)N1CCC[C@H]1C(=O)N[C@H](C(=O)N[C@@H](CCCCN)C(=O)N[C@@H](CC(C)C)C(=O)N[C@@H](CCCCNC(=O)COCCOCCNC(=O)COCCOCCNC(=O)CC[C@H](NC(=O)CCCCCCCCCCCCCCCCC(=O)O)C(=O)O)C(=O)N[C@@H](CCC(N)=O)C(=O)N[C@H](C(=O)N[C@@H](CC(C)C)C(=O)N[C@@H](CC(C)C)C(=O)N[C@@H](CCCCN)C(=O)N[C@@H](CCC(N)=O)C(=O)N[C@@H](CCC(=O)O)C(=O)N[C@@H](CCCNC(=N)N)C(=O)N[C@@H](CCC(N)=O)C(=O)N[C@@H](CCCCN)C(=O)N[C@@H](CCCCN)C(=O)NC(C)(C)C(=O)N[C@@H](CCCNC(=N)N)C(=O)N[C@@H](CCC(=O)O)C(=O)N[C@@H](CCC(N)=O)C(=O)N[C@@H](C)C(=O)N[C@@H](CCC(=O)O)C(=O)N[C@H](C(=O)N[C@@H](CC(N)=O)C(=O)N[C@@H](CCCCN)C(=O)N[C@@H](CCCNC(=N)N)C(=O)N[C@H](C(=O)N[C@@H](CC(C)C)C(=O)N[C@@H](CCC(=O)O)C(=O)N[C@@H](CCCNC(=N)N)C(=O)N[C@H](C(N)=O)C(C)C)[C@@H](C)CC)[C@@H](C)O)[C@@H](C)CC)[C@@H](C)CC)C(C)C)C(C)C [compound 152] (H-IVLSLDVPIKLK([AEEA-AEEA-γGlu-C18 diacid])QILLKQERQKK[Aib]REQAETNKRILERV-NH2; N-terminus assumed) | 0.09 | 4.94 | > 100 | 4.9 | – | –
2 | CC[C@H](C)[C@H](N)C(=O)N[C@H](C(=O)N[C@@H](CC(C)C)C(=O)N[C@@H](CO)C(=O)N[C@@H](CC(C)C)C(=O)N[C@@H](CC(=O)O)C(=O)N[C@H](C(=O)N1CCC[C@H]1C(=O)N[C@H](C(=O)NCC(=O)N[C@@H](CC(C)C)C(=O)N[C@@H](CCCCNC(=O)COCCOCCNC(=O)COCCOCCNC(=O)CC[C@H](NC(=O)CCCCCCCCCCCCCCCCC(=O)O)C(=O)O)C(=O)N[C@@H](CCC(N)=O)C(=O)N[C@H](C(=O)N[C@@H](CC(C)C)C(=O)N[C@@H](CC(C)C)C(=O)N[C@@H](CCCCN)C(=O)N[C@@H](CCC(N)=O)C(=O)N[C@@H](CCC(=O)O)C(=O)N[C@@H](CCCNC(=N)N)C(=O)N[C@@H](CCC(N)=O)C(=O)N[C@@H](CCCCN)C(=O)N[C@@H](CCCCN)C(=O)NC(C)(C)C(=O)N[C@@H](CCCNC(=N)N)C(=O)N[C@@H](CCC(=O)O)C(=O)N[C@@H](CCC(N)=O)C(=O)N[C@@H](C)C(=O)N[C@@H](CCC(=O)O)C(=O)N[C@H](C(=O)N[C@@H](CC(N)=O)C(=O)N[C@@H](C)C(=O)N[C@@H](CCC(N)=O)C(=O)N[C@H](C(=O)N[C@@H](CC(C)C)C(=O)N[C@@H](C)C(=O)N[C@@H](CCC(N)=O)C(=O)N[C@H](C(N)=O)C(C)C)[C@@H](C)CC)[C@@H](C)O)[C@@H](C)CC)[C@@H](C)CC)C(C)C)C(C)C [compound 156] (H-IVLSLDVPIGLK([AEEA-AEEA-γGlu-C18 diacid])QILLKQERQKK[Aib]REQAETNAQILAQV-NH2; N-terminus assumed) | 1.06 | – | > 100 | 4 | – | –
3 | IVLSLDVPIGLK([γGlu-Palmitoyl])QKLLKQEKQEKEKQQAETNAKILAQV-NH2 (N-terminus assumed; SMILES CCCCCCCCCCCCCCCC(=O)N[C@@H](CCC(=O)NCCCC[C@H](NC(=O)[C@H](CC(C)C)NC(=O)CNC(=O)[C@@H](NC(=O)[C@@H]1CCCN1C(=O)[C@@H](NC(=O)[C@H](CC(=O)O)NC(=O)[C@H](CC(C)C)NC(=O)[C@H](CO)NC(=O)[C@H](CC(C)C)NC(=O)[C@@H](NC(=O)[C@@H](N)[C@@H](C)CC)C(C)C)C(C)C)[C@@H](C)CC)C(=O)N[C@@H](CCC(N)=O)C(=O)N[C@@H](CCCCN)C(=O)N[C@@H](CC(C)C)C(=O)N[C@@H](CC(C)C)C(=O)N[C@@H](CCCCN)C(=O)N[C@@H](CCC(N)=O)C(=O)N[C@@H](CCC(=O)O)C(=O)N[C@@H](CCCCN)C(=O)N[C@@H](CCC(N)=O)C(=O)N[C@@H](CCC(=O)O)C(=O)N[C@@H](CCCCN)C(=O)N[C@@H](CCC(=O)O)C(=O)N[C@@H](CCCCN)C(=O)N[C@@H](CCC(N)=O)C(=O)N[C@@H](CCC(N)=O)C(=O)N[C@@H](C)C(=O)N[C@@H](CCC(=O)O)C(=O)N[C@H](C(=O)N[C@@H](CC(N)=O)C(=O)N[C@@H](C)C(=O)N[C@@H](CCCCN)C(=O)N[C@H](C(=O)N[C@@H](CC(C)C)C(=O)N[C@@H](C)C(=O)N[C@@H](CCC(N)=O)C(=O)N[C@H](C(N)=O)C(C)C)[C@@H](C)CC)[C@@H](C)O)C(=O)O) [peptide of SEQ ID NO: 4] | – | – | – | – | > 1000 | 17.4
4 | IVLSLDVPIGLK([γGlu-Palmitoyl])QKLLKQQRQRKERQQAETNARILARV-NH2 (N-terminus assumed; SMILES CCCCCCCCCCCCCCCC(=O)N[C@@H](CCC(=O)NCCCC[C@H](NC(=O)[C@H](CC(C)C)NC(=O)CNC(=O)[C@@H](NC(=O)[C@@H]1CCCN1C(=O)[C@@H](NC(=O)[C@H](CC(=O)O)NC(=O)[C@H](CC(C)C)NC(=O)[C@H](CO)NC(=O)[C@H](CC(C)C)NC(=O)[C@@H](NC(=O)[C@@H](N)[C@@H](C)CC)C(C)C)C(C)C)[C@@H](C)CC)C(=O)N[C@@H](CCC(N)=O)C(=O)N[C@@H](CCCCN)C(=O)N[C@@H](CC(C)C)C(=O)N[C@@H](CC(C)C)C(=O)N[C@@H](CCCCN)C(=O)N[C@@H](CCC(N)=O)C(=O)N[C@@H](CCC(N)=O)C(=O)N[C@@H](CCCNC(=N)N)C(=O)N[C@@H](CCC(N)=O)C(=O)N[C@@H](CCCNC(=N)N)C(=O)N[C@@H](CCCCN)C(=O)N[C@@H](CCC(=O)O)C(=O)N[C@@H](CCCNC(=N)N)C(=O)N[C@@H](CCC(N)=O)C(=O)N[C@@H](CCC(N)=O)C(=O)N[C@@H](C)C(=O)N[C@@H](CCC(=O)O)C(=O)N[C@H](C(=O)N[C@@H](CC(N)=O)C(=O)N[C@@H](C)C(=O)N[C@@H](CCCNC(=N)N)C(=O)N[C@H](C(=O)N[C@@H](CC(C)C)C(=O)N[C@@H](C)C(=O)N[C@@H](CCCNC(=N)N)C(=O)N[C@H](C(N)=O)C(C)C)[C@@H](C)CC)[C@@H](C)O)C(=O)O) [peptide of SEQ ID NO: 5] | – | – | – | – | > 1000 | 37.4
5 | IVLSLDVPIGLK([γGlu-Palmitoyl])QKLLKQQRQRKERQQAEKNARILARV-NH2 (N-terminus assumed; SMILES CCCCCCCCCCCCCCCC(=O)N[C@@H](CCC(=O)NCCCC[C@H](NC(=O)[C@H](CC(C)C)NC(=O)CNC(=O)[C@@H](NC(=O)[C@@H]1CCCN1C(=O)[C@@H](NC(=O)[C@H](CC(=O)O)NC(=O)[C@H](CC(C)C)NC(=O)[C@H](CO)NC(=O)[C@H](CC(C)C)NC(=O)[C@@H](NC(=O)[C@@H](N)[C@@H](C)CC)C(C)C)C(C)C)[C@@H](C)CC)C(=O)N[C@@H](CCC(N)=O)C(=O)N[C@@H](CCCCN)C(=O)N[C@@H](CC(C)C)C(=O)N[C@@H](CC(C)C)C(=O)N[C@@H](CCCCN)C(=O)N[C@@H](CCC(N)=O)C(=O)N[C@@H](CCC(N)=O)C(=O)N[C@@H](CCCNC(=N)N)C(=O)N[C@@H](CCC(N)=O)C(=O)N[C@@H](CCCNC(=N)N)C(=O)N[C@@H](CCCCN)C(=O)N[C@@H](CCC(=O)O)C(=O)N[C@@H](CCCNC(=N)N)C(=O)N[C@@H](CCC(N)=O)C(=O)N[C@@H](CCC(N)=O)C(=O)N[C@@H](C)C(=O)N[C@@H](CCC(=O)O)C(=O)N[C@@H](CCCCN)C(=O)N[C@@H](CC(N)=O)C(=O)N[C@@H](C)C(=O)N[C@@H](CCCNC(=N)N)C(=O)N[C@H](C(=O)N[C@@H](CC(C)C)C(=O)N[C@@H](C)C(=O)N[C@@H](CCCNC(=N)N)C(=O)N[C@H](C(N)=O)C(C)C)[C@@H](C)CC)C(=O)O) [peptide of SEQ ID NO: 6] | – | – | – | – | 830 | 47.2
6 | IVLSLD[dV]PTKLK([γGlu-Palmitoyl])QKLLKQERQRKEREQAEKNARILARV-NH2 (not fully specified; printed as IVLSLDvPTKLK*QKLLKQERQRKEREQAEKNARILARV-NH2) [peptide of SEQ ID NO: 7] | – | – | – | – | 588 | 58.6
